We go through 1 substance from patent US20090175784A1.

In experiment [1] the target is murine αVβ3/5 integrin (murine melanoma cell line B16F10, negative control) (murine) (UniProt P43406). Put plainly: cell-based or functional assay. Also on record: IC50 of doxorubicin, integrin targeted liposome-entrapped dox 90:1, murine melanoma B16-F10 cells (negative control): unit not given beside the values.
The target in experiment [2] is human αVβ3/5 integrins on human tumor cells (A375.S2, MDA-MB-231, A2780, HT29, A549) (human) (UniProt P06756). Put plainly: cell-based or functional assay. Also on record: IC50 of doxorubicin, integrin targeted liposome-entrapped dox 90:1, murine melanoma B16-F10 cells (negative control): unit not given beside the values.

murine αVβ3/5 integrin (murine melanoma cell line B16F10, negative control) (murine), sequence (P43406 31-1044, form in doubt, chain 1 of 3): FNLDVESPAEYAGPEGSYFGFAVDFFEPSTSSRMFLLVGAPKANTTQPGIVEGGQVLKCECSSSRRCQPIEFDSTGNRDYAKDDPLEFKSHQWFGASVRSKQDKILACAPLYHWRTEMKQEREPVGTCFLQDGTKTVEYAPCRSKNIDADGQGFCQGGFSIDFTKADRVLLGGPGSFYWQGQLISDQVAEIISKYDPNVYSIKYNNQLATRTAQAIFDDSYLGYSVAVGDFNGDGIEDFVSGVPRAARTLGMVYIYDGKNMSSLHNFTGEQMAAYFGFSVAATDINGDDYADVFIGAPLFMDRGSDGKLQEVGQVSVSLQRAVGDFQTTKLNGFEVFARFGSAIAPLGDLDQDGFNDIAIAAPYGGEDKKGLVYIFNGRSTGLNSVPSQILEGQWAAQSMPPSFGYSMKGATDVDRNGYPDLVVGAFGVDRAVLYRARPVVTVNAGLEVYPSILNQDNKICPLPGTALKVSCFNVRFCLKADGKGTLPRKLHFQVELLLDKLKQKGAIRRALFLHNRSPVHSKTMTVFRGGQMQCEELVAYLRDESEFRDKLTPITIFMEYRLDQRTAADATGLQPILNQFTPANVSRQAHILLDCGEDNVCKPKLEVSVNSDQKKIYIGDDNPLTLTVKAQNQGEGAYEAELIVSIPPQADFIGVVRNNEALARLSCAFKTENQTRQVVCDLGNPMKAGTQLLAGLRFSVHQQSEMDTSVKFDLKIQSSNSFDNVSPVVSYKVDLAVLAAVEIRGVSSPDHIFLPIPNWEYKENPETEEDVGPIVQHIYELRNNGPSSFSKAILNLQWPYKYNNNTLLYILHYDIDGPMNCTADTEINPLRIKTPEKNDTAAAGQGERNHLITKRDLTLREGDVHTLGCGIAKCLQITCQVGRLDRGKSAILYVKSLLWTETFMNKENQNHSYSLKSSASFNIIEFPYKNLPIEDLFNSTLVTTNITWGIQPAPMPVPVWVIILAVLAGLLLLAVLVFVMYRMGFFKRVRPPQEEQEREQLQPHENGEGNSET
murine αVβ3/5 integrin (murine melanoma cell line B16F10, negative control) (murine), sequence (O54890 26-787, form in doubt, chain 2 of 3, further chain): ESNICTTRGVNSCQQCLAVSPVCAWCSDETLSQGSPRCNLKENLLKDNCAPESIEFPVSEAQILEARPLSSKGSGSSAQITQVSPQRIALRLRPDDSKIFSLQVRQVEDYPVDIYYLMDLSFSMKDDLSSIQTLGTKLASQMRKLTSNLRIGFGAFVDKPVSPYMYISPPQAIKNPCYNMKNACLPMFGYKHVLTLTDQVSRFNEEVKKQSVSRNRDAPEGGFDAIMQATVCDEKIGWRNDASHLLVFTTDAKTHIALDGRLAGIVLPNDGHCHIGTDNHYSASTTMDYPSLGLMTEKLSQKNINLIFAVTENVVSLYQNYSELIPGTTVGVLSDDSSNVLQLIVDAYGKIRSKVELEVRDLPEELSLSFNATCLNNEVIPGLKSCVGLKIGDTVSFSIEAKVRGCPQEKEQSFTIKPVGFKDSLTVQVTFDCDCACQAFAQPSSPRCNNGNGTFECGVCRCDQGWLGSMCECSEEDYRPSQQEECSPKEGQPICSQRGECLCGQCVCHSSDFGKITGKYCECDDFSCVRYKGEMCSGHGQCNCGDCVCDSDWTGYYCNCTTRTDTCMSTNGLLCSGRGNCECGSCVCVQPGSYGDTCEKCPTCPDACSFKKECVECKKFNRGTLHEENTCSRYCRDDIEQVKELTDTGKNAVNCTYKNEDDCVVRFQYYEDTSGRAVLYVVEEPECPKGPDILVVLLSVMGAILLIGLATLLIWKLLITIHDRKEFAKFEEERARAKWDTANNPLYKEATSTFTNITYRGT
murine αVβ3/5 integrin (murine melanoma cell line B16F10, negative control) (murine), sequence (O70309 24-798, form in doubt, chain 3 of 3, further chain): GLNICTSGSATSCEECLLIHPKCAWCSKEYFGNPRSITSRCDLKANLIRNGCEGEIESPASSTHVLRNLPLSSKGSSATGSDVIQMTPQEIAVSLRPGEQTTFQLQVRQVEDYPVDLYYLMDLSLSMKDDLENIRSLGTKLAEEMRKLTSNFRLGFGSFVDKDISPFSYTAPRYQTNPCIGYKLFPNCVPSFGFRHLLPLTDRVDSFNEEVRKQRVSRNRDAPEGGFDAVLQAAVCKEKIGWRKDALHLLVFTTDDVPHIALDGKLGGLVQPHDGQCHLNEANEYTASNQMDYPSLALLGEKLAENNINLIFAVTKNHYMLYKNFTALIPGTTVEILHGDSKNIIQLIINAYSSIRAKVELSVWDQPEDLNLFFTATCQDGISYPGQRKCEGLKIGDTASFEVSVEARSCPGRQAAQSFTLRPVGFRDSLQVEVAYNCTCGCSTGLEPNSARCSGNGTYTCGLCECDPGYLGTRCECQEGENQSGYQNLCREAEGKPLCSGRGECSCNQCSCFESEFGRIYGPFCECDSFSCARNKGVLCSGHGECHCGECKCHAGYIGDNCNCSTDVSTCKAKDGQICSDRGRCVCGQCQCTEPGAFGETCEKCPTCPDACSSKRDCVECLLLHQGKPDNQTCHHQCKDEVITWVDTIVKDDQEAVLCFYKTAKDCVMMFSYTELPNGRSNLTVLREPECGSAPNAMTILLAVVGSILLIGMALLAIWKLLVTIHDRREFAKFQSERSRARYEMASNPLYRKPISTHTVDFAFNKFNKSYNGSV

On to “CNTO95 Fab′ (from pepsin F(ab′)2, reduced and reoxidized) conjugated to MalPEG-DSPE on the surface of liposomes”, for which, in experiment [1], the IC50 of doxorubicin, integrin targeted liposome-entrapped dox 90:1, murine melanoma B16-F10 cells (negative control) was over 200 and the Increase (ratio of IC50 of liposome-entrapped dox to IC50 of integrin-targeted 90:1), murine melanoma B16-F10 cells (negative control) was found to be 1 fold. Further, in experiment [2], the Increase (ratio of IC50 of liposome-entrapped dox to IC50 of integrin-targeted 90:1), breast cancer MDA-MB-231 cells was 5 fold; the Increase (ratio of IC50 of liposome-entrapped dox to IC50 of integrin-targeted 90:1), colon cancer HT29 cells came to 1.1 fold; the Increase (ratio of IC50 of liposome-entrapped dox to IC50 of integrin-targeted 90:1), lung cancer A549 cells is 1 fold; the Increase (ratio of IC50 of liposome-entrapped dox to IC50 of integrin-targeted 90:1), melanoma A375.S2 cells amounted to 29 fold. Further, the Increase (ratio of IC50 of liposome-entrapped dox to IC50 of integrin-targeted 90:1), ovarian cancer A2780 cells in experiment [2] was determined as 29 fold.
